The values that follow come from patent US20090022738A1 (MICROMET, published 2009).

Some results are limits rather than exact numbers.

Assay [1] addresses T1, human CD3 (human, UniProt P07766 23-207; P04234 22-171; P09693 23-182).
T1 construct: whole, on cells; also called CD3 antigen; human CD3 complex
Put plainly: FACS on CD3-enriched PBMCs.

In assay [2] the target is T2, CD19 (human, UniProt P15391 20-556).
T2 construct: whole, on cells; also called CD19 on NALM-6 cells
T2 sequence (looked up): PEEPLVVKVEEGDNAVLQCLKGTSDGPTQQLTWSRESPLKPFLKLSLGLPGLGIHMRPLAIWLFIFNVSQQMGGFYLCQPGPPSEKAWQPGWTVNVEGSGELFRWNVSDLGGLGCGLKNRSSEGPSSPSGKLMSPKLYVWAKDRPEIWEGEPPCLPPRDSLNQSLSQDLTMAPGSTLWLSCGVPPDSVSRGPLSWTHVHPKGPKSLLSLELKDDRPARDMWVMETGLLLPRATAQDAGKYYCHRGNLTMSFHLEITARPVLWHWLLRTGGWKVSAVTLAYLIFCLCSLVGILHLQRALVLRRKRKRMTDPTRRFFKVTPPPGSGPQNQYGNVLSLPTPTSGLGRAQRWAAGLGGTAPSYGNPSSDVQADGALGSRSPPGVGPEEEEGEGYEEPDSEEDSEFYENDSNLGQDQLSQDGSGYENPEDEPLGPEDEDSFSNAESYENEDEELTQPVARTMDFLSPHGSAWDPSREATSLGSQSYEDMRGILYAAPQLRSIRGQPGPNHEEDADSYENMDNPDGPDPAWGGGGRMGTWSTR
Put plainly: FACS, crude supernatant on CD19-positive NALM-6 cells; negative control MFI ca. 3. The protocol: (§1) In order to analyze the binding efficacy of the deimmunized constructs to CD3 and CD19 a FACS-based assay was performed. Initially, crude supernatants were tested for binding on CD3-enriched PBMCs or CD19-positive NALM-6 cells. Cells were incubated with non-diluted supernatants for 30 minutes at 8° C. Upon two wash steps the cells were labeled with an anti-His antibody (Qiagen) under the same conditions. After additional wash steps binding of the constructs was detected with a FITC-conjugated sheep anti-mouse antibody (Sigma). Cells were analyzed with a FACS Calibur cytometer (B&D). As controls supernatants of anti-CD19×anti-CD3 and GFP-transfected cells were included. […] The positive control, which was a non-deimmunized anti-CD19×anti-CD3 construct reached a MFI of around 60 showing that the deimmunized constructs comprising anti-CD3 (VH5/VL1) (SEQ ID NO.:190), anti-CD3 (VH5/VL2) (SEQ ID NO.:192), anti-CD3 (VH5/VL3) (SEQ ID NO.:194), anti-CD3 (VH7/VL1) (SEQ ID NO.:196), anti-CD3 (VH7/VL2) (SEQ ID NO.:198) and anti-CD3 (VH7/VL3) (SEQ ID NO.:200) bound CD3 with extremely high efficacy.
The FACS-based binding assay was also carried out for CD19. In this experiment CD19 and a secondary antibody was as a negative control. In this experiment, all assayed constructs achieved a MFI of at least 80 while the MFI of the negative control was ca. 3.
On the technique in general: A flow cytometer gives signals particle by particle.

For assay [3], the target named is T1, human CD3. Put plainly: FACS, second experiment, crude supernatant on CD3-enriched PBMCs. The protocol:
as §1

In assay [4] the target is T3, Epithelial cell adhesion molecule (EpCAM) (human, UniProt P16422 24-314).
T3 construct: whole, on cells; also called 17-1A antigen; KSA
T3 sequence (looked up): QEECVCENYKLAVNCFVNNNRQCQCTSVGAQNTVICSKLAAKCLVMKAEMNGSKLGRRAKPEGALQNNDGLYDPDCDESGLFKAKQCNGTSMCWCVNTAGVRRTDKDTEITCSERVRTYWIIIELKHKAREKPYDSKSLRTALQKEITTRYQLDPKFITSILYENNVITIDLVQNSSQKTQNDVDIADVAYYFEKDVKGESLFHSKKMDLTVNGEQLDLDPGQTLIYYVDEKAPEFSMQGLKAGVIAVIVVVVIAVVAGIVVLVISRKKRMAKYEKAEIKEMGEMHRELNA
Put plainly: FACS, 10 µg/ml on EpCAM positive Kato III cells. The protocol:
(§2) Binding of the bispecific single chain molecules with anti-CD3 part in N-terminal orientation to EpCAM and CD3 were confirmed by FACS analyses. For that purpose the EpCAM positive human gastric cancer cell line Kato III (ATCC HTB-103) was used.
(§3) Cells were cultured according to the recommendations of the supplier and a number of 200000 cells was incubated with 10 μg/ml of the construct in 50 μl PBS with 2% FCS (fetal calf serum). The binding of the construct was detected with an anti-His antibody (Penta-His Antibody, obtained from Qiagen, Hilden, FRG) at 2 μg/ml in PBS with 2% FCS. […] The samples were measured on a FACSscan (BD biosciences, Heidelberg, FRG).

The target in assay [5] is T1, human CD3. Put plainly: FACS, 10 µg/ml on Jurkat cells. The protocol: as §2, §3

B1: anti-CD19×anti-CD3 (VH3/VL1) (SEQ ID NO.:184) (bispecific antibody)
chain: DIQLTQSPASLAVSLGQRATISCKASQSVDYDGDSYLNWYQQIPGQPPKLLIYDASNLVSGIPPRFSGSGSGTDFTLNIHPVEKVDAATYHCQQSTEDPWTFGGGTKLEIKGGGGSGGGGSGGGGSQVQLQQSGAELVRPGSSVKISCKASGYAFSSYWMNWVKQRPGQGLEWIGQIWPGDGDTNYNGKFKGKATLTADESSSTAYMQLSSLASEDSAVYFCARRETTTVGRYYYAMDYWGQGTTVTVSSGGGGSDVQLVQSGAEVKKPGASVKVSCKASGYTATRYTMHWVRQAPGQGLEWIGYINPSRGYTNYAQKLQGRVTMTTDTSTSTAYLQMNSLKTEDTAVYYCARYYDDHYCLDYWGQGTTVTVSSGEGTSTGSGGSGGSGGADDIQMTQSPSSLSASVGDRVTITCRASQSVSYMNWYQQKPGKAPKRWIYDTSKVASGVPARFSGSGSGTDYSLTINSLEAEDAATYYCQQWSSNPLTFGGGTKVEIK
notes: As m4: bispecific single chain, His-tagged; also called pEF anti-CD19×anti-CD3 (VH3/VL1)
For the molecule B1, the binding result in assay [1] was “no binding (tested: non-diluted supernatant)”. Further, the MFI in assay [2] is ≥ 80 MFI; in assay [3], ~6 MFI.

B2: anti-CD19×anti-CD3 (VH2/VL3) (SEQ ID NO.:182) (bispecific antibody)
chain: DIQLTQSPASLAVSLGQRATISCKASQSVDYDGDSYLNWYQQIPGQPPKLLIYDASNLVSGIPPRFSGSGSGTDFTLNIHPVEKVDAATYHCQQSTEDPWTFGGGTKLEIKGGGGSGGGGSGGGGSQVQLQQSGAELVRPGSSVKISCKASGYAFSSYWMNWVKQRPGQGLEWIGQIWPGDGDTNYNGKFKGKATLTADESSSTAYMQLSSLASEDSAVYFCARRETTTVGRYYYAMDYWGQGTTVTVSSGGGGSDVQLVQSGAEVKKPGASVKVSCKASGYTATRYTMHWVRQAPGQGLEWIGYINPSRGYTNYAQKLQGRVTMTTDTSTSTAYMELSSLRSEDTATYYCARYYDDHYCLDYWGQGTTVTVSSGEGTSTGSGGSGGSGGADDIVLTQSPATLSLSPGERATLTCRASSSVSYMNWYQQKPGKAPKRWIYDTSKVASGVPARFSGSGSGTDYSLTINSLEAEDAATYYCQQWSSNPLTFGGGTKVEIK
notes: As m4: bispecific single chain, His-tagged; also called pEF anti-CD19×anti-CD3 (VH2/VL3)
For B2, the binding result in assay [1] was “no binding (tested: non-diluted supernatant)”. In addition, the figures for the MFI in assay [2] and in assay [3] were ≥ 80 MFI and ~6 MFI, respectively.

B3: anti-CD19×anti-CD3 (VH3/VL3) (SEQ ID NO.:188) (bispecific antibody)
chain: DIQLTQSPASLAVSLGQRATISCKASQSVDYDGDSYLNWYQQIPGQPPKLLIYDASNLVSGIPPRFSGSGSGTDFTLNIHPVEKVDAATYHCQQSTEDPWTFGGGTKLEIKGGGGSGGGGSGGGGSQVQLQQSGAELVRPGSSVKISCKASGYAFSSYWMNWVKQRPGQGLEWIGQIWPGDGDTNYNGKFKGKATLTADESSSTAYMQLSSLASEDSAVYFCARRETTTVGRYYYAMDYWGQGTTVTVSSGGGGSDVQLVQSGAEVKKPGASVKVSCKASGYTATRYTMHWVRQAPGQGLEWIGYINPSRGYTNYAQKLQGRVTMTTDTSTSTAYLQMNSLKTEDTAVYYCARYYDDHYCLDYWGQGTTVTVSSGEGTSTGSGGSGGSGGADDIVLTQSPATLSLSPGERATLTCRASSSVSYMNWYQQKPGKAPKRWIYDTSKVASGVPARFSGSGSGTDYSLTINSLEAEDAATYYCQQWSSNPLTFGGGTKVEIK
notes: As m4: bispecific single chain, His-tagged; also called pEF anti-CD19×anti-CD3 (VH3/VL3)
Consider B3, for which, in assay [1], the binding result is listed as “no binding (tested: non-diluted supernatant)”. Also, the MFI in assay [2] is ≥ 80 MFI; in assay [3], ~6 MFI.

B4: anti-CD19×anti-CD3 (VH3/VL2) (SEQ ID NO.:186) (bispecific antibody)
chain: DIQLTQSPASLAVSLGQRATISCKASQSVDYDGDSYLNWYQQIPGQPPKLLIYDASNLVSGIPPRFSGSGSGTDFTLNIHPVEKVDAATYHCQQSTEDPWTFGGGTKLEIKGGGGSGGGGSGGGGSQVQLQQSGAELVRPGSSVKISCKASGYAFSSYWMNWVKQRPGQGLEWIGQIWPGDGDTNYNGKFKGKATLTADESSSTAYMQLSSLASEDSAVYFCARRETTTVGRYYYAMDYWGQGTTVTVSSGGGGSDVQLVQSGAEVKKPGASVKVSCKASGYTATRYTMHWVRQAPGQGLEWIGYINPSRGYTNYAQKLQGRVTMTTDTSTSTAYLQMNSLKTEDTAVYYCARYYDDHYCLDYWGQGTTVTVSSGEGTSTGSGGSGGSGGADDIVLTQSPATLSLSPGERATLSCRASQSVSYMNWYQQKPGKAPKRWIYDTSKVASGVPARFSGSGSGTDYSLTINSLEAEDAATYYCQQWSSNPLTFGGGTKVEIK
notes: As m4: bispecific single chain, His-tagged; also called pEF anti-CD19×anti-CD3 (VH3/VL2)
For the molecule B4, the binding result in assay [1] was “no binding (tested: non-diluted supernatant)”. Besides, the values for the MFI in assay [2] and in assay [3] were ≥ 80 MFI and ~6 MFI, respectively.

B5: deimmunized anti-CD3 (VH5/VL2)×4-7 (SEQ ID NO.:33) (bispecific antibody)
chain: DVQLVQSGAEVKKPGASVKVSCKASGYTFTRYTMHWVRQAPGQGLEWIGYINPSRGYTNYADSVKGRFTITTDKSTSTAYMELSSLRSEDTATYYCARYYDDHYCLDYWGQGTTVTVSSGEGTSTGSGGSGGSGGADDIVLTQSPATLSLSPGERATLSCRASQSVSYMNWYQQKPGKAPKRWIYDTSKVASGVPARFSGSGSGTDYSLTINSLEAEDAATYYCQQWSSNPLTFGGGTKVEIKSGGGGSEVQLLEQSGAELARPGASVKLSCKASGYTFTNYGLSWVKQRPGQVLEWIGEVYPRIGNAYYNEKFKGKATLTADKSSSTASMELRSLTSEDSAVYFCARRGSYDTNYDWYFDVWGQGTTVTVSSGGGGSGGGGSGGGGSELVMTQTPLSLPVSLGDQASISCRSSQSLVHSNGNTYLHWYLQKPGQSPKLLIYKVSNRFSGVPDRFSGSGSGTDFTLKISRVEAEDLGVYFCSQSTHVPYTFGGGTKLEIK
notes: Bispecific single chain, VH(CD3)-VL(CD3)-VH(EpCAM)-VL(EpCAM); detected by anti-His; also called anti-CD3 (VH5/VL2)x4-7
Turning to B5, the binding result in assay [4] and in assay [5] was “binds” in each case.

B6: deimmunized anti-CD3 (VH5/VL2)×5-10 (SEQ ID NO.:37) (bispecific antibody)
chain: DVQLVQSGAEVKKPGASVKVSCKASGYTFTRYTMHWVRQAPGQGLEWIGYINPSRGYTNYADSVKGRFTITTDKSTSTAYMELSSLRSEDTATYYCARYYDDHYCLDYWGQGTTVTVSSGEGTSTGSGGSGGSGGADDIVLTQSPATLSLSPGERATLSCRASQSVSYMNWYQQKPGKAPKRWIYDTSKVASGVPARFSGSGSGTDYSLTINSLEAEDAATYYCQQWSSNPLTFGGGTKVEIKSGGGGSEVQLLEQSGAELVRPGTSVKISCKASGYAFTNYWLGWVKQRPGHGLEWIGDIFPGSGNIHYNEKFKGKATLTADKSSSTAYMQLSSLTFEDSAVYFCARLRNWDEPMDYWGQGTTVTVSSGGGGSGGGGSGGGGSELVMTQSPSSLTVTAGEKVTMSCKSSQSLLNSGNQKNYLTWYQQKPGQPPKLLIYWASTRESGVPDRFTGSGSGTDFTLTISSVQAEDLAVYYCQNDYSYPLTFGAGTKLEIK
notes: Bispecific single chain, VH(CD3)-VL(CD3)-VH(EpCAM)-VL(EpCAM); expressed in CHO with a leader peptide; detected by anti-His
For B6, the binding result in assay [4] and in assay [5] was “binds” in each case.

B7: deimmunized anti-CD3 (VH5/VL2)×3-1 (SEQ ID NO.:31) (bispecific antibody)
chain: DVQLVQSGAEVKKPGASVKVSCKASGYTFTRYTMHWVRQAPGQGLEWIGYINPSRGYTNYADSVKGRFTITTDKSTSTAYMELSSLRSEDTATYYCARYYDDHYCLDYWGQGTTVTVSSGEGTSTGSGGSGGSGGADDIVLTQSPATLSLSPGERATLSCRASQSVSYMNWYQQKPGKAPKRWIYDTSKVASGVPARFSGSGSGTDYSLTINSLEAEDAATYYCQQWSSNPLTFGGGTKVEIKSGGGGSEVQLLEQSGAELVKPGASVKISCKASGYAFTNYWLGWVKQRPGHGLEWIGDLFPGSGNTHYNERFRGKATLTADKSSSTAFMQLSSLTSEDSAVYFCARLRNWDEAMDYWGQGTTVTVSSGGGGSGGGGSGGGGSELVMTQSPSYLAASPGETITINCRASKSISKYLAWYQEKPGKTNKLLIYSGSTLQSGIPSRFSGSGSGTDFTLTISSLEPEDFAMYYCQQHNEYPYTFGGGTKLEIK
notes: Bispecific single chain, VH(CD3)-VL(CD3)-VH(EpCAM)-VL(EpCAM); detected by anti-His
On to B7, for which the binding result in assay [4] and in assay [5] was “binds” throughout.
